The target of this assay is human CTLA-4 (human, UniProt P16410). As to the kind of experiment: BLI.

As usually defined, the Kd is the concentration at which binding is half-saturated. A lower Kd goes with higher affinity.

human CTLA-4, sequence (P16410 36-161): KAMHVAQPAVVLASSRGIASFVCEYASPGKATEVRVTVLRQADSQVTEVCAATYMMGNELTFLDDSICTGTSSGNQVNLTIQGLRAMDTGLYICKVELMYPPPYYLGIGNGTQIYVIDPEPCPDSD

B1: GBD008-hS005 (designed binder)
chain: QVQLVESGGGLVEAGGSLRLSCATSGRTASSNAMAWFRQAPGKEREFVAAISATGGLTAYADSVKGRFTISRDNSKNAVYLQMNTLKPEDTAVYIGAVGRERWYLRHTENEYDYWGRGAQVTVSS
The molecule B1 showed a Kd of 269 pM.

B2: GBD008-hS005-5 (designed binder)
chain: EVQLVESGGGLVQPGGSLRLSCAASGRTASSNAMAWFRQAPGKEREFVSAISATGGLTAYADSVKGRFTISRDNSKNTLYLQMNSLRAEDTAVYIGAVGRERWYLRHTENEYDYWGQGTLVTVSS
B2 returned a Kd of 155 pM.

The values above are taken from patent US20260374871 (published 2026).
